Experimental findings from FireProtDB (doi:10.1016/j.jmb.2008.02.039) are described below.

For the data set the following is noted: Thermococcus kodakarensis (strain ATCC BAA-918 / JCM 12380 / KOD1); pH 9; 50 °C; GdnHCl; CD; Tris-HCl 20 mM; reversible: Yes; whole UniProt chain shown.

B1: Ribonuclease HII wild type, O74035 (protein)
chain: MKIAGIDEAGRGPVIGPMVIAAVVVDENSLPKLEELKVRDSKKLTPKRREKLFNEILGVLDDYVILELPPDVIGSREGTLNEFEVENFAKALNSLKVKPDVIYADAADVDEERFARELGERLNFEAEVVAKHKADDIFPVVSAASILAKVTRDRAVEKLKEEYGEIGSGYPSDPRTRAFLENYYREHGEFPPIVRKGWKTLKKIAEKVESEKKAEERQATLDRYFRKV
As to B1, the denaturant m value turned out to be 5.64 kcal/mol/M, the “denaturant midpoint (higher = more stable)” value turned out to be 1.85 M and the unfolding free energy came to 10.4 kcal/mol.
